Legend:
[1] = molecular target: T1, MipZ R196A (Caulobacter crescentus, UniProt Q9A6C9 1-278, R196A); assay: MST; low-affinity group, KD >> 10 uM; EMSA: 10 mM HEPES/NaOH pH 7.2, 150 mM NaCl, 10 mM MgCl2, 0.05% Tween 20, 0.46 mM ATPgS, room temp; BLI: 50 mM HEPES/NaOH pH 7.2, 50 mM NaCl, 5 mM MgCl2, 0.1 mM; settings: protein: recombinant; tags: C-terminal His6 (pET21a); chain copies: 2; label: Cy3 (5') on strand 1; blunt
T1 sequence: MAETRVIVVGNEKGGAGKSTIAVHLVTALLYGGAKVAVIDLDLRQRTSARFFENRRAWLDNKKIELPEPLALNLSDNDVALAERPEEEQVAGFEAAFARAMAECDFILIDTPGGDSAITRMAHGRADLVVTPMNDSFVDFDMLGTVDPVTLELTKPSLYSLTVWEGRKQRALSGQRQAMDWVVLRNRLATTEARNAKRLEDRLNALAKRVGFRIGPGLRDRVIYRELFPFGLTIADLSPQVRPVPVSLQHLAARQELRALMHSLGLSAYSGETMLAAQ

[2] = molecular target: T2, MipZ K13A (Caulobacter crescentus, UniProt Q9A6C9 1-278, K13A); assay: as above; settings: protein: recombinant; tags: C-terminal His6 (pET21a); label: Cy3 (5') on strand 1; blunt
T2 sequence: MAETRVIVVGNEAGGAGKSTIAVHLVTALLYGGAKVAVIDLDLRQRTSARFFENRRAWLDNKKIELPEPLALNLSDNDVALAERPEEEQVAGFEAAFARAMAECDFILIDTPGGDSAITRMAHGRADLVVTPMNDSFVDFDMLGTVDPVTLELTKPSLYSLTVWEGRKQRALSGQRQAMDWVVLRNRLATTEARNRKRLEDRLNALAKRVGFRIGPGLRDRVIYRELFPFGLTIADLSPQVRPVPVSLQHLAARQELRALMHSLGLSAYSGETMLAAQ

[3] = molecular target: T3, MipZ K197A (Caulobacter crescentus, UniProt Q9A6C9 1-278, K197A); assay: as above; settings: protein: recombinant; tags: C-terminal His6 (pET21a); chain copies: 2; label: Cy3 (5') on strand 1; blunt
T3 sequence: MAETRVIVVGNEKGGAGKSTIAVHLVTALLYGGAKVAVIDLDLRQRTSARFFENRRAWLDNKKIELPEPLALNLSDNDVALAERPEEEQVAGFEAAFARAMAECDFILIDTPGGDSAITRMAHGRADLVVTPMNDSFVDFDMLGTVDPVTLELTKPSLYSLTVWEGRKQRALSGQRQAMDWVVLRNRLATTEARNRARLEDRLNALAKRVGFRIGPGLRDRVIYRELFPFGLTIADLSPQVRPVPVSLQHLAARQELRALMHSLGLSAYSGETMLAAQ

[4] = molecular target: T4, MipZ D42A (Caulobacter crescentus, UniProt Q9A6C9 1-278, D42A); assay: MST; EMSA: 10 mM HEPES/NaOH pH 7.2, 150 mM NaCl, 10 mM MgCl2, 0.05% Tween 20, 0.46 mM ATPgS, room temp; BLI: 50 mM HEPES/NaOH pH 7.2, 50 mM NaCl, 5 mM MgCl2, 0.1 mM; settings: protein: recombinant; tags: C-terminal His6 (pET21a); chain copies: 2; label: Cy3 (5') on strand 1; blunt
T4 sequence: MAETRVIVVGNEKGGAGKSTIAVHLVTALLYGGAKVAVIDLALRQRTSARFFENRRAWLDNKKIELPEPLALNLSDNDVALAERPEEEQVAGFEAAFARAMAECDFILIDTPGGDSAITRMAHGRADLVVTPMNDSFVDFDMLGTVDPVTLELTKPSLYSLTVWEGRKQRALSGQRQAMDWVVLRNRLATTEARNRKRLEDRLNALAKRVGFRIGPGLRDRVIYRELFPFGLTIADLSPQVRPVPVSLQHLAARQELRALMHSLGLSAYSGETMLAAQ

[5] = molecular target: T5, MipZ L248A (Caulobacter crescentus, UniProt Q9A6C9 1-278, L248A); assay: as above; settings: protein: recombinant; tags: C-terminal His6 (pET21a); chain copies: 2; label: Cy3 (5') on strand 1; blunt
T5 sequence: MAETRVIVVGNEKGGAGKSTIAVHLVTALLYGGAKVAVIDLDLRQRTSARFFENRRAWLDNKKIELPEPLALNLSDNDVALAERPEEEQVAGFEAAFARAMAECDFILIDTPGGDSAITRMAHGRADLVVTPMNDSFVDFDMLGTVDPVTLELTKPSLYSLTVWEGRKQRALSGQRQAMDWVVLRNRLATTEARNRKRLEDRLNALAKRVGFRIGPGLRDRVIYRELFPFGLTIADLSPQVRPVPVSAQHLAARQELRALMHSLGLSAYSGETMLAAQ

[6] = molecular target: T6, MipZ WT (Caulobacter crescentus, UniProt Q9A6C9 1-278); assay: as above; settings: protein: recombinant; tags: C-terminal His6 (pET21a); chain copies: 2; label: Cy3 (5') on strand 1; blunt
T6 sequence: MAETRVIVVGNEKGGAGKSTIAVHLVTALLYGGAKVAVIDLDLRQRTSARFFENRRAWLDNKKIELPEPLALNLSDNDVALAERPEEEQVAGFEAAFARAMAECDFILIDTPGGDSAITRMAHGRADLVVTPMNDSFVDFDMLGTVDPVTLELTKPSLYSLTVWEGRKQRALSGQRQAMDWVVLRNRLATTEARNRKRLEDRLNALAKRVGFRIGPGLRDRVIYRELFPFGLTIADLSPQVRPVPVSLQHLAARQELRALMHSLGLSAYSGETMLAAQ

B1: rand-Cy3/rand-rev 26 bp (dsDNA)
DNA 1: GAGGCAGACTAGATCTTCTAGTTCGG
DNA 2: CCGAACTAGAAGATCTAGTCTGCCTC
[1]
  Kd: > 10 µM
[2]
  Kd: > 10 µM
[3]
  Kd: > 10 µM
[4]
  Kd: < 10 µM
[5]
  Kd: < 10 µM
[6]
  Kd: < 10 µM
